Patent US9265844B2, “Protease degradable polypeptides and uses thereof” (THE METHODIST HOSPITAL SYSTEM, priority 2010, dated 2016)
No end group written: not given here. d = 2'-deoxy (DNA); r = 2'-OH (RNA)

How the values were obtained:
[1] = test system: HeLa cells; test: Live cell imaging by fluorescence microscopy; format: cell-based, human; conditions: compared with 5L AuNPs
Method: Fluorescence images of live cells were acquired using a fluorescence microscopy system (Olympus, Tokyo, Japan). Briefly, HeLa and MDA-MB231 cells were collected by trypsinization, counted, and plated in a 96-well black clear-bottom culture plate (Corning Life Sciences, Pittston, Pa.) at a density of 1×10^3 cells per well. After 1 day, AuNPs (2.52×10^8 particles) were added and incubated for 12 hours. Cells were then washed three times with PBS and cultured in phenol red-free medium and imaged with a fluorescence microscopy at the time points indicated. In a separate set of experiment, cells were treated with CellTrackers, CM-DiI (2 μM), or CMTMR (7.5 μM, Invitrogen). One day after cell seeding, HeLa and MDA-MB231 cells were incubated with CM-DiI for 5 minutes at 37° C. and then further incubated at 4° C. for an additional 15 minutes according to manufacturer's protocol. After removing the medium, the cells were then incubated for an additional 15 minutes at 4° C. For CMTMR study, cells were incubated with CMTMR for 30 minutes at 37° C. and the medium was then replaced with fresh medium and incubated for a further 30 minutes. After labeling with CM-DiI or CMTMR, cells were washed three times with PBS and cultured in phenol red-free medium and imaged under a fluorescence microscopy as indicated.

[2] = test system: Jurkat cells; test: Fluorescence retention, flow cytometry; format: cell-based; conditions: day 4
Method: Jurkat cells (1.0×10^6 cells) were seeded in a 12-well culture plate (BD Falcon, San Jose, Calif.) together with 5L AuNPs (1.26×10^9 particles) in 400 μl RPMI 1640 medium and cultured for 24 hours in the dark at 37° C. in a 5% CO2 atmosphere. Cells (4×10^5) were then transferred to a FACS tube after three washes with PBS, and the FITC fluorescence signal inside the cells was measured using a BD LSR II flow cytometry (BD Biosciences, San Jose, Calif.). Remaining cells were cultured in 6-well culture plates (BD Falcon) in 4 ml RPMI 1640 medium. The procedure was repeated at different time points, up to 21 days. In a separate set of experiments, Jurkat cells (1.0×10^6) were incubated with CM-DiI (1 μM) or CMTMR (2 μM) following the manufacturer's instructions. On the designated day, the fluorescence signal of CM-DiI or CMTMR was measured using a PE filter set by a BD LSR II flow cytometry.

[3] = target: T1, Cath E (Mus musculus, UniProt P70269); test: Ex vivo NIRF imaging of GEMM pancreas with PanIN lesions; format: in vivo; conditions: 48 hours after probe injection, 2 months old mice
T1 construct: from tissue; host or cells: pancreas, PDAC tumours and PanIN lesions of GEMMs (cLGL-KRasG12V/Bac-Ela-CreER; p53 conditional deletion/LSL-KrasG12D/Pdx1-Cre)
T1 sequence (P70269 60-397): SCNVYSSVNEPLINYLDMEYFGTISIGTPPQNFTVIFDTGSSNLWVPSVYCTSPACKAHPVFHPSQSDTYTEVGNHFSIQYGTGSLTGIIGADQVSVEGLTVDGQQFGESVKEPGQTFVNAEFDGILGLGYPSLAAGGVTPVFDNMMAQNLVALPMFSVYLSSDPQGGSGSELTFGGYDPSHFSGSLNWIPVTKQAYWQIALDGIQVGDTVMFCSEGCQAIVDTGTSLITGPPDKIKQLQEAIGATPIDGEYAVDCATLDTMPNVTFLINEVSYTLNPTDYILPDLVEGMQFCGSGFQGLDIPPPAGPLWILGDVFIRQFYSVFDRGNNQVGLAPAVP
Method: To assess whether Cath E activity served as a biomarker for in vivo imaging, studies were performed in human pancreatic cancer xenografts in immunodeficient mice (acquired from the National Cancer Institute with age of the mice ranging from 5-6 weeks old) and transgenic mice. Animals were housed at the MD Anderson Cancer Center animal facility. Mice used for optical imaging studies were fed with a chlorophyll-free diet. Genetic PanINs and PDAC mouse models were developed by crossing cLGL-KRas^G12V with Bac-Ela-CreER mice as described previously (Ji et al., Gastroenterology 137:1072-82 (2009)). These animals developed PanINs at 2 months and PDAC by ˜6 months. […]
(§1) Subcutaneous models (human material PDAC tumor grafts with mice bearing 2 tumors each n=4, MDA PATC-3 orthotopic model n=3, MPanc96 expressing low levels of Cath E (MPanc96-FG30) n=10, and MPanc96 expression high levels of Cath E (Mpanc96-Cath E) n=10) and two transgenic models with litter controls (n=5 each) were used to assess the usefulness of the Cath E-activatable imaging probe. […] White light and near infrared fluorescence (NIRF) images were acquired sequentially using Cy5.5 fluorescence filters (615-665 nm excitation filter and 695-770 nm emission filter). […] The mean fluorescence flux from each image was defined as photons per second per centimeter squared per steradian (p/s/cm^2/sr). […]

[4] = target: T1, Cath E; test: Ex vivo NIRF imaging of GEMM PDAC tumors; format: in vivo
Method: To assess whether Cath E activity served as a biomarker for in vivo imaging, studies were performed in human pancreatic cancer xenografts in immunodeficient mice (acquired from the National Cancer Institute with age of the mice ranging from 5-6 weeks old) and transgenic mice. Animals were housed at the MD Anderson Cancer Center animal facility. Mice used for optical imaging studies were fed with a chlorophyll-free diet. Genetic PanINs and PDAC mouse models were developed by crossing cLGL-KRas^G12V with Bac-Ela-CreER mice as described previously (Ji et al., Gastroenterology 137:1072-82 (2009)). These animals developed PanINs at 2 months and PDAC by ˜6 months. […] PDAC in these mice developed in 6-8 weeks after birth (Bardeesy et al., Proc. Natl. Acad. Sci. USA 103:5947-52 (2006)). Littermates without PDAC served as controls. LSL-KRas^G12D, p53 floxed, and Pdx-1-Cre genetic mice were obtained from the Mouse Models for Human Cancer Consortium Repository (Rockville, Md.).
Subcutaneous models (human material PDAC tumor grafts with mice bearing 2 tumors each n=4, MDA PATC-3 orthotopic model n=3, MPanc96 expressing low levels of Cath E (MPanc96-FG30) n=10, and MPanc96 expression high levels of Cath E (Mpanc96-Cath E) n=10) and two transgenic models with litter controls (n=5 each) were used to assess the usefulness of the Cath E-activatable imaging probe. Animals were injected with a single dose of the optical imaging probe (1 nmol/100 μl PBS) or saline (controls) intravenously through tail vein using a 30 gauge syringe needle. The anesthetized mice were placed in the heated imaging platform of IVIS-100/Spectrum optical imaging systems (Xenogen/Caliper, Mountain View, Calif.). White light and near infrared fluorescence (NIRF) images were acquired sequentially using Cy5.5 fluorescence filters (615-665 nm excitation filter and 695-770 nm emission filter). Mice were imaged 48 hours post probe intravenous injection. Mice were sacrificed and organs/tissues were excised and rinsed with PBS then imaged for their associated NIRF. Fluorescence variations between different organs/tissues were corrected by subtracting the autofluorescence signals obtained from imaging organs/tissues of mice without any probe injected. General illumination setting and image acquisition parameters were: epi-illumination; 0.5 sec. exposure time; f/stop=2; binning (HR)4; field of view (FOV=12.9 cm or 6.5 cm width and height). The mean fluorescence flux from each image was defined as photons per second per centimeter squared per steradian (p/s/cm^2/sr). Acquired images were analyzed using Living Image 3.1 software (Xenogen/Caliper, Alameda, Calif.). Fluorescence contrast, defined as radiance, was quantified using identical size regions of interest (ROI).

[5] = target: T2, Cath E (Homo sapiens, UniProt P14091); test: Ex vivo NIRF imaging of MDA PATC-3 orthotopic tumors in mice; set-up: endogenous in cells; host or cells: primary patient PDAC tumour grafts (subcutaneous) and MDA PATC-3 orthotopic tumours in immunodeficient mice; conditions: organs excised, 48 hours after iv probe
T2 sequence (P14091 54-396): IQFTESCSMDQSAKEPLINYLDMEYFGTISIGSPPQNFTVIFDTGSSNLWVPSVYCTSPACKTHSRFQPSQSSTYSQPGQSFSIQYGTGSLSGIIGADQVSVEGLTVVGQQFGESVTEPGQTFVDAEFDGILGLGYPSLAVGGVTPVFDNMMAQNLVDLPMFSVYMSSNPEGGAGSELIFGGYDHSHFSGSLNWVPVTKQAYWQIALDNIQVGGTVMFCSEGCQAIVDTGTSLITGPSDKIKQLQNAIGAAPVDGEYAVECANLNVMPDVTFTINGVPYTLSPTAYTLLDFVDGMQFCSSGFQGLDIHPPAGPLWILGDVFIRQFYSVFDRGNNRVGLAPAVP
Method: To establish orthotopic tumors, mice were anesthetized as described above, and the pancreas was exposed through a left abdominal incision (laparotomy). Subconfluent MDA PATC-3 cells were detached with 0.25% trypsin-EDTA and cell viability was assessed by trypan blue exclusion. Cells (1×10^6) were resuspended in 50 uL of Hanks Balanced Salt Solution (HBSS) and directly injected into the pancreas (caudal). After tumor implantation, the pancreas was carefully returned to the peritoneal cavity and the abdomen was closed. Two months after tumor implantation, fluorescent probe was injected via tail vein and imaged 48 hours after injection.
as §1, with “Fluorescence variations between different organs/tissues were corrected by subtracting the autofluorescence signals obtained” for “The mean fluorescence flux”, “imaging organs/tissues of mice without any probe injected.” for “each image was defined as photons per second per centimeter squared per steradian (p/s/cm^2/sr).”

[6] = target: T2, Cath E; test: In vivo NIRF imaging of primary patient tumor grafts in mice; set-up: endogenous in cells; host or cells: primary patient PDAC tumour grafts (subcutaneous) and MDA PATC-3 orthotopic tumours in immunodeficient mice; conditions: 48 hours after iv probe, immunodeficient mice
Method: Human cancer specimens used for transplantation as primary tumor grafts were obtained from patients with pancreatic invasive ductal adenocarcinoma who had undergone initial surgical resection at UT MD Anderson Cancer Center (Kim et al., Nat. Protoc. 4:1670-80 (2009)). Nude mice were anesthetized with a single intraperitoneal injection of ketamine (100 mg/kg) and xylazine (10 mg/kg). After washing with sterile PBS, tumor fragments were placed in the subcutaneous space of immunodeficient mice (Kim et al., Nat. Protoc. 4:1670-80 (2009)). When the tumor was visible, it was dissected out and transplanted into male nude mice and allowed to grow for 30 days. […]
as §1

[7] = test system: firefly luciferase in MDA-MB231-luc2 cells; test: Luciferase gene silencing, bioluminescence; format: cell-based, human; conditions: 5 days, same conditions
Method: For the examination of the gene silencing effect, bioluminescence measurement was performed after incubating with various multilayered AuNPs. Cells were seeded in a 96-well black clear bottom culture plate at a density of 2.5×10^3 (or 1.25×10^4 of LNCaP-luc2) cells per well. One day later, different sRAuNP (1.26×10^8 particles) were added to each well and cultured for an additional 24 hours. The cells were further cultured in phenol red free medium for another 5 days. Manufacturer's direction was followed for the transfection with Lipofectamine. Bioluminescence measurement was performed using IVIS 200 (Caliper) immediately after addition of 125 μg mL^−1 of D-Luciferin (Regis).

CCCCCCCCCCCCCCCCCCN1C(=CC=CC2=[N+](CCCCCCCCCCCCCCCCCC)c3ccccc3C2(C)C)C(C)(C)c2cc(CNC(=O)c3ccc(CCl)cc3)ccc21.[Cl-] [CM-DiI]
signal strength [1]: much weaker than that of the 5L AuNPs | fluorescence intensity, % of the original intensity [2]: 8%

Cath E-activatable imaging probe: Cy5.5-labeled Ala-Gly-Phe-Ser-Leu-Pro-Ala-Gly-CysCONH2 (SEQ ID NO:29) loaded on D-polyethylene glycol protected grafted copolymer (DPGC) (AGFSLPAGC-NH2; also: Cy5.5 label, place not given here, loaded on D-polyethylene glycol protected grafted copolymer (DPGC))
increase in fluorescence in pancreas with PanIN lesions compared to normal pancreas [3]: ~3 fold | increase in fluorescence in pancreas tumors compared to normal pancreas ([4]; 48 hours after 1 nmol probe iv, pooled GEMMs): ~15 fold | tumor to non-tumor signal ratio, tumor/bone ([4]; 48 hours after probe): 2.6 | tumor to non-tumor signal ratio, tumor/kidney ([4]; 48 hours after probe): 1.9 | tumor to non-tumor signal ratio, tumor/lung ([4]; 48 hours after probe): 2.9 | tumor to non-tumor signal ratio, tumor/muscle ([4]; 48 hours after probe): 5.5 | tumor to non-tumor signal ratio, tumor/normal pancreas ([4]; 48 hours after probe): 2.2 | tumor to non-tumor signal ratio, tumor/small intestine ([4]; 48 hours after probe): 1.7 | tumor to non-tumor signal ratio, tumor/spleen ([4]; 48 hours after probe): 3.9 | fluorescence signal at orthotopic primary cell tumors [5]: strong signal specifically localized to the tumors in the pancreas | fluorescence signal at subcutaneous patient tumor grafts [6]: strong specific fluorescence signal localized to the implanted tumor grafts

Free unformulated siRNA: siRNA against luciferase, SEQ ID NO:17/18, unformulated (chain 1 CGUACGCGGAAUACUUCGATT; chain 2 UCGAAGUAUUCCGCGUACGTT; sugars from the 5' end r19 d2, backbone not given here)
silencing effect [7]: didn't show any appreciable effect
